Assay [1] deals with T1, recombinant human CD30L (human, UniProt P32971 63-234).
T1 construct: Purified recombinant protein of ELISA, BLI, Carterra and KinExA; also called rhCD30L; huCD30L
T1 sequence (looked up): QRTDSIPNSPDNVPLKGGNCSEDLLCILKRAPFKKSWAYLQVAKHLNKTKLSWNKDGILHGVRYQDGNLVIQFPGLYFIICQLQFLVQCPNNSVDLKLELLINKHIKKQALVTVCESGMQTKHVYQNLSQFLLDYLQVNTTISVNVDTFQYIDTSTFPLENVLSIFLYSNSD
Briefly: KinExA, Fab in solution. (In general: Kinetic exclusion samples the free partner from a solution-phase mixture.)
Text: (§1) For each experiment, CD30L antigen is titrated in a background of the Fab and allowed to reach equilibrium. The solutions are then briefly exposed to the solid phase and a portion of free Fab is captured. The captured Fab is then labeled with a fluorescent secondary molecule. The short contact time with the solid phase is less than the time needed for dissociation of the pre-formed complex in solution, thus competition between the solution and the solid phase titrated binding partner is kinetically excluded.
(§2) The signals generated from the captured Fab, which are directly proportional to the concentration of free Fab in the equilibrated samples, are used to determine the KD value. The KinExA Pro software performs a least squares analysis on the measured data to fit optimal solution for the KD and the activity of the Fab to a curve representative of a 1:1 reversible bi-molecular interaction.

In assay [2] the target is T1, recombinant human CD30L. Briefly: KinExA, calculated as KD x kon.
Experimental: (§3) To more precisely define and compare the binding affinities (dissociation equilibrium constant, KD), the association rate constant (on rate, kₒₙ), and the dissociation rate constant (off rate, koff), the kinetic exclusion assay (KinExA) was performed. KinExA measures the equilibrium binding affinity and kinetics between unmodified binding molecules in solution. For affinity analysis, the equilibrium dissociation constant, KD, is experimentally determined and reflects the strength of the binding interaction. The rate of association, kₒₙ, is also experimentally determined, while the rate of dissociation, koff, is calculated based on the equation: koff=Kd×kₒₙ.
Assay [3] deals with T2, recombinant cynomolgus CD30L (cynomolgus, UniProt A0A7N9CVX7 63-234).
T2 construct: Purified recombinant protein; also called rcyCD30L; cyno CD30L
T2 sequence: T1 sequence (looked up) with V13I, K16R, I142V, I165V
The assay is described as follows: ELISA, Binding to CD30L, immobilized cyno CD30L (Absorbance 450 nm). (In general: ELISA stands for enzyme-linked immunosorbent assay.)

Assay [4] deals with T3, human CD30L expressed on B16 cells (human, UniProt P32971 1-234).
T3 sequence (looked up): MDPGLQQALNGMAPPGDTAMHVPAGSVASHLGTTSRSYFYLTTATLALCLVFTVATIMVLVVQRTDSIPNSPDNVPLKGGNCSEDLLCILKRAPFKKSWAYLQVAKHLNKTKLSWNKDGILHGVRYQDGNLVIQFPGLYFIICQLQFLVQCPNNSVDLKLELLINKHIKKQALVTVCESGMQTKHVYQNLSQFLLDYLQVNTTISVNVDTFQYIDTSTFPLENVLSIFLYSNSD
Briefly: cell-based or functional assay.

Assay [5] concerns the target T1, recombinant human CD30L. Briefly: ELISA, binding to purified rhCD30L.
The target in assay [6] is T3, human CD30L expressed on B16 cells. The assay is described as follows: flow cytometry, binding to B16-rhCD30L cells. For orientation: A flow cytometer gives signals particle by particle.
In assay [7] the target is T2, recombinant cynomolgus CD30L. Briefly: ELISA, blocking of CD30-Fc on rcyCD30L; competitor CD30-Fc.
Assay [8] has the same target. Briefly: ELISA, Neutralization of CD30-Fc binding to immobilized cyno CD30L (Absorbance 450 nm).
The target in assay [9] is T3, human CD30L expressed on B16 cells. Briefly: cell-based or functional assay. The source holds these as a separate data set.
In assay [10] the target is T1, recombinant human CD30L. The assay is described as follows: ELISA, blocking of CD30-Fc binding to huCD30L (OD 450 nm).
The target of assay [11] is T3, human CD30L expressed on B16 cells. The assay is described as follows: flow cytometry, blocking of CD30-Fc on B16-huCD30L cells; competitor CD30-Fc.
The target of assay [12] is T1, recombinant human CD30L. The assay is described as follows: ELISA, Neutralization of CD30-Fc binding to immobilized human CD30L (Absorbance 450 nm).
Assay [13] concerns the target T1, recombinant human CD30L. Briefly: ELISA, blocking of CD30-Fc on huCD30L; competitor CD30-Fc.
Assay [14] concerns the target T4, cynomolgus CD30L expressed on HEK293 cells (cynomolgus, UniProt A0A7N9CVX7 1-234).
T4 construct: whole, on cells; also called HEK293-cyCD30L; HEK-cyCD30L
T4 sequence: T3 sequence (looked up) with A19T, M20T, G32E, L41F, V75I, K78R, I204V, I227V
The assay is described as follows: flow cytometry, blocking of CD30-Fc on HEK293-cyCD30L cells; competitor CD30-Fc.

For assay [15], the target named is T1, recombinant human CD30L. Briefly: ELISA, binding to rhCD30L (OD 450 nm).
For assay [16], the target named is T4, cynomolgus CD30L expressed on HEK293 …. The assay is described as follows: cell-based or functional assay.
Assay [17] concerns the target T3, human CD30L expressed on B16 cells. The assay is described as follows: cell-based or functional assay. The source holds these as a separate data set.
The target of assay [18] is T2, recombinant cynomolgus CD30L. The assay is described as follows: ELISA, binding to purified rcyCD30L.
Assay [19] concerns the target T3, human CD30L expressed on B16 cells. The assay is described as follows: flow cytometry, B16-huCD30L/CD30-Fc Neutralization: blocking of CD30-Fc binding to B16-huCD30L cells.
Assay [20] deals with T4, cynomolgus CD30L expressed on HEK293 …. Briefly: flow cytometry, binding to HEK293-cyCD30L cells.
Assay [21] has the same target. The assay is described as follows: flow cytometry, HEK293-cyCD30L/CD30-Fc Neutralization: blocking of CD30-Fc binding to HEK293-cyCD30L cells.
Assay [22] shares this target. Briefly: flow cytometry, Cell Binding to HEK293-cyCD30L (MFI).
Assay [23] concerns the target T1, recombinant human CD30L. Briefly: ELISA, Binding to CD30L, immobilized human CD30L (Absorbance 450 nm).
The target in assay [24] is T2, recombinant cynomolgus CD30L. Briefly: KinExA, Fab in solution.
Text: as §1, §2
Assay [25] has the same target. The assay is described as follows: KinExA, calculated as KD x kon.
Experimental: as §3
A KD analysis requires immobilization of one interaction partner to a solid phase which is then used as a probe to capture the other interaction partner, the constant binding partner (Fab). For each experiment, CD30L antigen is titrated in a background of the Fab and allowed to reach equilibrium. The solutions are then briefly exposed to the solid phase and a portion of free Fab is captured. The captured Fab is then labeled with a fluorescent secondary molecule. The short contact time with the solid phase is less than the time needed for dissociation of the pre-formed complex in solution, thus competition between the solution and the solid phase titrated binding partner is kinetically excluded.
Assay [26] concerns the target T1, recombinant human CD30L. The assay is described as follows: KinExA, calculated as KD x kon. The source holds these as a separate data set.
Experimental: as §3
Assay [27] deals with T1, recombinant human CD30L. Briefly: KinExA, Fab in solution. This is another data set of the same source.
Text: as §1, §2
In assay [28] the target is T5, cynomolgus CD30L expressed on cells (cynomolgus, UniProt A0A7N9CVX7 1-234).
T5 construct: whole, on cells; also called cyCD30L; HEK293-cyCD30L
T5 sequence: T3 sequence (looked up) with A19T, M20T, G32E, L41F, V75I, K78R, I204V, I227V
The assay is described as follows: flow cytometry, blocking of CD30-Fc binding to cyno CD30L on cells; reference Ref1.

Assay [29] deals with T6, human CD30L expressed on cells (human, UniProt P32971 1-234).
T6 construct: also called huCD30L; B16-huCD30L
T6 sequence: T3 sequence (looked up)
Briefly: flow cytometry, blocking of CD30-Fc binding to human CD30L on cells; reference Ref1.

Another assay concerns the target T7, CDH13 (human, UniProt P55290 139-693).
T7 construct: whole, on cells; also called hit #16
T7 sequence (looked up): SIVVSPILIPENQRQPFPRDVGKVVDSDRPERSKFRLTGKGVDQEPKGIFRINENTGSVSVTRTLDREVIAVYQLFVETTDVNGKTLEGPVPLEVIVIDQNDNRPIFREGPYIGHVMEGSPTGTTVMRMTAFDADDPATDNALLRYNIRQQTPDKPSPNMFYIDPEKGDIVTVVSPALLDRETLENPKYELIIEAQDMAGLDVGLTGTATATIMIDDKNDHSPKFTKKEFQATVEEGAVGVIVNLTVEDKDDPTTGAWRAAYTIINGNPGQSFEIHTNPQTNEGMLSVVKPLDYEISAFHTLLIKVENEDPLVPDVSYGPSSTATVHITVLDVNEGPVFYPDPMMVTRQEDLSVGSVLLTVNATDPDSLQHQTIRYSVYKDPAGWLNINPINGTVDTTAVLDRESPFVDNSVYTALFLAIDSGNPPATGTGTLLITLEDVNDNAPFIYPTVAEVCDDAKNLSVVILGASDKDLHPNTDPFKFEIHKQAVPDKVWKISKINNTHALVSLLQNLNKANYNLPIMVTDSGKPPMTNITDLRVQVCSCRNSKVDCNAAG
Briefly: cell microarray, library and confirmation screens.

Assay [30] has as its target T8, recombinant human CD30L protein (human, UniProt P32971 63-234).
T8 construct: also called rhCD30L; huCD30L (ELISA)
T8 sequence (looked up): T1 sequence (looked up)
The assay is described as follows: KinExA, Fab, human CD30L; reference Fab of Ref1.
Text: as §1, §2

Positions count from the first letter of the chain named. Like-named read-outs stand apart in the source and are kept apart here.

B1: Fab of the reference 1 (ref1) anti-CD30L (Fab, V domains shown)
VH: QVQLQESGPGLVKPSETLSLTCTVSGGSISSYIWSWIRQPAGKGLEWIGRIYASGNTNYNPSLKSRVTISVDTSKNQFSLKLSSMTAADTAVYYCARDYRVAGTYYYYYGLDVWGQGTTVTVSS
VL: QSALTQPASVSGSPGQSITISCTGTSSDVGVYDYVSWYQQHPGKAPKLMIYEVSNRPSGVSNRFSGSKSGNTASLTISGLQTEDEADYYCSSYTSRSTWVFGGGTKLTVL
notes: Fab
The Kd is the concentration at which binding is half-saturated. Broadly, the kon is a measure of how fast the partners come together. By koff is commonly meant a measure of how fast the partners let go of each other. As to B1, in the assay with recombinant human CD30L [1], the Kd worked out at 377 pM and the kon was determined as 937000 M⁻¹ s⁻¹. Moreover, the off-rate constant (koff) with recombinant human CD30L [2] is 0.000353 s⁻¹.

B2: anti-CD30L antibody clone 2 germlined (antibody, V domains shown)
VH: EVQLVESGGGLVQPGRSLRLSCAASGFNFDDYAMHWVRQAPGKGLEWVSGISWRSGNIGYADSVKGRFTISRDNAKNSLYLQMNSLRAEDTALYYCAKDKGIGFNWNYEGFDYWGQGTLVTVSS
VL: DIQMTQSPSSLSASVGDRVTITCRASQGISNHLAWFQQKPGKAPKSLIYAASSLQSGVPSRFSGSGSGTDFTLTISSLQPEDFATYYCQQYVTYPLTFGGGTKVEIK
notes: also called germlined clone 2
The EC50 (read off the curve) is the concentration at which the effect is half-maximal. The term EC50 denotes the midpoint of the concentration-response curve. A word on the IC50: it is the concentration needed to halve the response being measured. In the case of B2, the “EC50 (read off the curve)” value in assay [3] is around 30 pM; with recombinant human CD30L [15] it was around 100 pM; in assay [22], around 300 pM; with recombinant human CD30L [23] it was around 30 pM. Besides, the “IC50 (read off the curve), IL-8 release, Dual Assay K299 + B16-huCD30L” value in [4] was around 1000 pM. The EC50 came out at 30 pM in the assay with recombinant human CD30L [5], 640 pM in assay [6], 50 pM in assay [18] and 330 pM in [20]. Further, the IC50 in assay [7] turned out to be 1530 pM; in assay [11], 670 pM; with recombinant human CD30L [13], 1920 pM; in [14], 340 pM. Further, the “IC50 (read off the curve)” value was around 2000 pM in [8]; around 2000 pM in the assay with recombinant human CD30L [10]; around 2000 pM in the assay with recombinant human CD30L [12]; around 400 pM in assay [19]; around 300 pM in [21]. Besides, in assay [9], the “IC50 (read off the curve), IL-8 release, dual cell assay (B16-huCD30L cells + K299 cells)” value was around 1000 pM. The “Inhibition of IL-8 release in a dual cell assay (HEK293-cyCD30L cells + K299 cells) IC50” value in assay [16] stood at 410 pM. The “Inhibition of IL-8 release in a dual cell assay (B16-huCD30L cells + K299 cells) IC50” value in assay [17] is 890 pM.

B3: Fab of clone 2 germlined (Fab, V domains shown)
VH: B2 VH
VL: B2 VL
notes: Fab; also called Fab of a representative anti-CD30L, clone 2 germlined
For B3, the results for the Kd (in assay [24]; with recombinant human CD30L [27]) were 122 pM and 90.5 pM, respectively. In addition, the on-rate constant (kon) stood at 3.1e+06 M⁻¹ s⁻¹ in assay [24] and 1.55e+06 M⁻¹ s⁻¹ with recombinant human CD30L [27]. Moreover, the koff in [25] is 0.000378 s⁻¹; with recombinant human CD30L [26] it was 0.000141 s⁻¹.

B4: anti-CD30L antibody clone 2 germlined with IgG1 constant region SEQ ID NO: 502 (antibody)
heavy: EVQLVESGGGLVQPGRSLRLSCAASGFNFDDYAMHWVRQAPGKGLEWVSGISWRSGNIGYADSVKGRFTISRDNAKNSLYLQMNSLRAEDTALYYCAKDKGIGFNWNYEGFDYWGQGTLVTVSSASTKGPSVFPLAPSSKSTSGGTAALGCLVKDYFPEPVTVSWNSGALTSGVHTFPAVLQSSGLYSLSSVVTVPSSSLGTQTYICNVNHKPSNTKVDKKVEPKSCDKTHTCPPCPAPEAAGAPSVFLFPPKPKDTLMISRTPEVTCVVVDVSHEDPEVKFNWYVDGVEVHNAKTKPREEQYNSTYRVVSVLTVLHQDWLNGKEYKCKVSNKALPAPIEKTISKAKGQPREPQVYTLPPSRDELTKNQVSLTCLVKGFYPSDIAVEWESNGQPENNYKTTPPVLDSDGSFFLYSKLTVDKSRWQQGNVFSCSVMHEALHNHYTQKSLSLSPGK
VL: B2 VL
notes: also called germlined clone 2; copies: 2 + 2
With B4, the “fold better IC50 than reference 1 (ref1) anti-CD30L” value in assay [28] came out at 2.13 fold; in [29] it was 2.74 fold. The binding result with CDH13 was “no binding (tested: 5 µg/mL)”.

B5: Fab of clone 2 germlined (Fab, V domains shown)
VH: B2 VH
VL: B2 VL
notes: Fab used in KinExA; also called Fab of a representative anti-CD30L, clone 2 germlined
Turning to B5, the “fold difference in KD against the reference 1 anti-CD30L” value in [30] was found to be 4.2 fold.

The record behind these values is patent US20240254246A1 (PROMETHEUS BIOSCIENCES, published 2024).
